Assay results published in patent US20220010021A1 (Sanofi, published 2022).
Substitutions are numbered along the chain they refer to. Numbers in names are those of the source.

T1: human beta-Klotho (KLB) (human, UniProt Q86Z14 53-997)
T1 construct: bought protein, used as analyte in the off-rate screening; also called human KLB; β-Klotho
T1 sequence (looked up): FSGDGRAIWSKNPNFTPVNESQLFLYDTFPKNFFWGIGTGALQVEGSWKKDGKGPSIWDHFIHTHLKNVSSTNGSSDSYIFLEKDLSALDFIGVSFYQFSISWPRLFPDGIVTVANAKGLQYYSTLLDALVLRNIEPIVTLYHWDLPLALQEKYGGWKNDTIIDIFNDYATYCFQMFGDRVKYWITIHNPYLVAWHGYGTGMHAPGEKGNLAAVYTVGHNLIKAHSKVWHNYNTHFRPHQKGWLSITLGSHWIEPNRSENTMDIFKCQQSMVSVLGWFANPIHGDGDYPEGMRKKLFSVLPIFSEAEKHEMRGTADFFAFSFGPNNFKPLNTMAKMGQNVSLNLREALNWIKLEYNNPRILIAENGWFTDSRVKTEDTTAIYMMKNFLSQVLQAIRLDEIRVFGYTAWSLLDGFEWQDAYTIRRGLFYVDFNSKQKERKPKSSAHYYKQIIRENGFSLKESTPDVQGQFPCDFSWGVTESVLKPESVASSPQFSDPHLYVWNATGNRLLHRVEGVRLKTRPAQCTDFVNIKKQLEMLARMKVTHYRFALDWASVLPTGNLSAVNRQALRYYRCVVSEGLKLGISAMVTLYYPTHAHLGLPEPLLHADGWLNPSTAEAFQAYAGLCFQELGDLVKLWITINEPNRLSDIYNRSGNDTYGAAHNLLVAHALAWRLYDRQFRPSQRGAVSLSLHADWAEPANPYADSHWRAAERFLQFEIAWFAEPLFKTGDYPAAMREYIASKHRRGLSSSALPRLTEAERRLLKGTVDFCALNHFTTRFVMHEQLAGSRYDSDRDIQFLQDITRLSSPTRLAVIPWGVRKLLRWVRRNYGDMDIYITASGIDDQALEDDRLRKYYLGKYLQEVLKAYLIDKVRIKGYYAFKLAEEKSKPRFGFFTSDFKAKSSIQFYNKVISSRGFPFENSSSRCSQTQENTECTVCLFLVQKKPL

B1: 16H7 variant with light chain substitution D52F (antibody, V domains shown)
VH: not shown
VL: SYVLTQPPSVSVAPGQTARITCGGNNIGSESVHWYQQKPGQAPVLVVYDDSFRPSGIPERFSGSNSGNTATLTISRVEAGDEADYYCQVWDGNSDHVVFGGGTKLTVLG
B2: 16H7 variant with light chain substitution D52K (antibody, V domains shown)
VH: not shown
VL: B1 VL with F52K
B3: 16H7 variant with light chain substitution R53I (antibody, V domains shown)
VH: not shown
VL: B1 VL with F52D, R53I
B4: 16H7 variant with light chain substitution P54W (antibody, V domains shown)
VH: not shown
VL: B1 VL with F52D, P54W
B5: 16H7 variant with light chain substitution P54C (antibody, V domains shown)
VH: not shown
VL: B1 VL with F52D, P54C
B6: 16H7 variant with light chain substitution D52H (antibody, V domains shown)
VH: not shown
VL: B1 VL with F52H
B7: 16H7 variant with light chain substitution P54L (antibody, V domains shown)
VH: not shown
VL: B1 VL with F52D, P54L
B8: 16H7 variant with light chain substitution D52T (antibody, V domains shown)
VH: not shown
VL: B1 VL with F52T
B9: 16H7 variant with light chain substitution P54I (antibody, V domains shown)
VH: not shown
VL: B1 VL with F52D, P54I
B10: 16H7 variant with light chain substitution R53H (antibody, V domains shown)
VH: not shown
VL: B1 VL with F52D, R53H
B11: 16H7 variant with light chain substitution D52S (antibody, V domains shown)
VH: not shown
VL: B1 VL with F52S
B12: 16H7 variant with light chain substitution D52R (antibody, V domains shown)
VH: not shown
VL: B1 VL with F52R
B13: 16H7 variant with light chain substitution P54K (antibody, V domains shown)
VH: not shown
VL: B1 VL with F52D, P54K
B14: 16H7 variant with light chain substitution D52L (antibody, V domains shown)
VH: not shown
VL: B1 VL with F52L
B15: 16H7 variant with light chain substitution P54F (antibody, V domains shown)
VH: not shown
VL: B1 VL with F52D, P54F
B16: 16H7 variant with light chain substitution D52N (antibody, V domains shown)
VH: not shown
VL: B1 VL with F52N
B17: 16H7 variant with light chain substitution P54V (antibody, V domains shown)
VH: not shown
VL: B1 VL with F52D, P54V
B18: 16H7 variant with light chain substitution P54T (antibody, V domains shown)
VH: not shown
VL: B1 VL with F52D, P54T
B19: 16H7 variant with light chain substitution D52V (antibody, V domains shown)
VH: not shown
VL: B1 VL with F52V
B20: 16H7 variant with light chain substitution R53C (antibody, V domains shown)
VH: not shown
VL: B1 VL with F52D, R53C
B21: 16H7 variant with light chain substitution P54G (antibody, V domains shown)
VH: not shown
VL: B1 VL with F52D, P54G
B22: 16H7 variant with light chain substitution P54D (antibody, V domains shown)
VH: not shown
VL: B1 VL with F52D, P54D
B23: 16H7 variant with light chain substitution D52M (antibody, V domains shown)
VH: not shown
VL: B1 VL with F52M
B24: 16H7 variant with light chain substitution P54Y (antibody, V domains shown)
VH: not shown
VL: B1 VL with F52D, P54Y
B25: 16H7 variant with light chain substitution P54N (antibody, V domains shown)
VH: not shown
VL: B1 VL with F52D, P54N
B26: 16H7 variant with light chain substitution P54H (antibody, V domains shown)
VH: not shown
VL: B1 VL with F52D, P54H
B27: 16H7 variant with light chain substitution D52Y (antibody, V domains shown)
VH: not shown
VL: B1 VL with F52Y
B28: 16H7 variant with light chain substitution R53A (antibody, V domains shown)
VH: not shown
VL: B1 VL with F52D, R53A
B29: 16H7 variant with light chain substitution P54M (antibody, V domains shown)
VH: not shown
VL: B1 VL with F52D, P54M
B30: 16H7 variant with light chain substitution P54S (antibody, V domains shown)
VH: not shown
VL: B1 VL with F52D, P54S
B31: 16H7 variant with light chain substitution D52G (antibody, V domains shown)
VH: not shown
VL: B1 VL with F52G
B32: 16H7 variant with light chain substitution D52Q (antibody, V domains shown)
VH: not shown
VL: B1 VL with F52Q
B33: 16H7 variant with light chain substitution D52I (antibody, V domains shown)
VH: not shown
VL: B1 VL with F52I

Columns and labels:
[1] = biological target: T1, human beta-Klotho (KLB); assay: BLI off-rate screening, mAb captured, KLB analyte;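 also: Off-rate taken from the dissociation phase, biosensors held in D-PBS with 0.1% BSA over 1800 s, antibody supernatants diluted to 25 µg/mL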
[2] = biological target: human FGFR1c/KLB receptor complex on iLite FGF21 Assay Ready Cells (human, UniProt P11362 22-822; Q86Z14 1-1044); assay: cell-based or functional assay; as to Mean E max (%): reference of the scale not given here
Sequence of human FGFR1c/KLB receptor complex on iLite FGF21 Assay Ready Cells (P11362 22-822, chain 1 of 2): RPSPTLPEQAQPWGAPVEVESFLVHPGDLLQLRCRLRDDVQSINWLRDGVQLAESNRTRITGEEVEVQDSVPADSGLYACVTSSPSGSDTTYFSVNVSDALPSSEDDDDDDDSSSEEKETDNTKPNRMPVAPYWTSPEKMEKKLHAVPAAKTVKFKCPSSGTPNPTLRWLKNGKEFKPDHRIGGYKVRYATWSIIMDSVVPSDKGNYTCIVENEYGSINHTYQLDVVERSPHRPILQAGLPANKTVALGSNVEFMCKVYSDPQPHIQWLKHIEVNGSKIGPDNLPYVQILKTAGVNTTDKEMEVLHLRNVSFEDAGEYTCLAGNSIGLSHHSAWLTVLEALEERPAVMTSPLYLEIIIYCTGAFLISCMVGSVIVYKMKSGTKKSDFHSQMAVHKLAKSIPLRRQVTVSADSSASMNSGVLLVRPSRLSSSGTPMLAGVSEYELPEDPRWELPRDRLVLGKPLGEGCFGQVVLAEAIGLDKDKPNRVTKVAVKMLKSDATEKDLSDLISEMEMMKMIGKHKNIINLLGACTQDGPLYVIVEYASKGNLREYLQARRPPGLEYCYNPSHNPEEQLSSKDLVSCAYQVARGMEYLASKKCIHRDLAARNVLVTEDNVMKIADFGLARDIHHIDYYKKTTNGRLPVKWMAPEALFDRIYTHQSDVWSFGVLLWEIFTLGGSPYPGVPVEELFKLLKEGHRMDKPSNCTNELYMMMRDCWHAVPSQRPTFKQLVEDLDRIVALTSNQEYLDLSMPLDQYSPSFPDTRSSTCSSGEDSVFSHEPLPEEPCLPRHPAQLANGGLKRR
Sequence of human FGFR1c/KLB receptor complex on iLite FGF21 Assay Ready Cells (Q86Z14 whole entry, chain 2 of 2): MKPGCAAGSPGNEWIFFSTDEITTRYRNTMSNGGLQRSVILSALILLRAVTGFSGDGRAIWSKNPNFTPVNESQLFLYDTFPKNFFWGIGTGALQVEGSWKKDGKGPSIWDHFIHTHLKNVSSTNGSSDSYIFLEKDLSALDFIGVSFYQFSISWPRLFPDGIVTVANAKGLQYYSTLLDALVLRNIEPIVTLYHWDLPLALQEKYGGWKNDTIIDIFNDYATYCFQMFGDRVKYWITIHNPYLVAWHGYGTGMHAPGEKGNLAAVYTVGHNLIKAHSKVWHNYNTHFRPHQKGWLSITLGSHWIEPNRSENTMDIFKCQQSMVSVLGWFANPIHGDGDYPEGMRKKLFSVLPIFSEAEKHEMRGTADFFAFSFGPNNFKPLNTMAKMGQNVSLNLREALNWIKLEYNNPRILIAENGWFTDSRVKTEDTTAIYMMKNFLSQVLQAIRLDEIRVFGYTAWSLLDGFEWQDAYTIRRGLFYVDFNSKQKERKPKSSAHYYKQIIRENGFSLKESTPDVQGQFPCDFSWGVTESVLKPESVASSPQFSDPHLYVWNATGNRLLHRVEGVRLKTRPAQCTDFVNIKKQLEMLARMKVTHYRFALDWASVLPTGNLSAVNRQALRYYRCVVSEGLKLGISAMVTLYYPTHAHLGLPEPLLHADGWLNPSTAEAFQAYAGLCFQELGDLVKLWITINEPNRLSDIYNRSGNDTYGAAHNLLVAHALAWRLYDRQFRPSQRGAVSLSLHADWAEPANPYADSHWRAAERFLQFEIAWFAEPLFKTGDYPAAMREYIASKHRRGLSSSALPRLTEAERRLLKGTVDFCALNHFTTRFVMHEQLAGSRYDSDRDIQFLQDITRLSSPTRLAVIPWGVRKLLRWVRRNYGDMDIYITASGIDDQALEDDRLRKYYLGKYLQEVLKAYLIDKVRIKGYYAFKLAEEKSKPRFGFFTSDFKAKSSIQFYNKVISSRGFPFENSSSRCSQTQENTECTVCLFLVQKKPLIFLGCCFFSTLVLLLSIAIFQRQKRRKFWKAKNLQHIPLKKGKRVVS

Binder | koff [1] | Mean E max (%) [2] | Mean EC50 [2]
B1 | 7.9e-06 s⁻¹ | 102% | 0.105 nM
B2 | 9.2e-05 s⁻¹ | 101% | 0.117 nM
B3 | 1.7e-05 s⁻¹ | 100% | 0.151 nM
B4 | 0.00017 s⁻¹ | 98% | 0.091 nM
B5 | 0.00012 s⁻¹ | 100% | 0.116 nM
B6 | 3.6e-05 s⁻¹ | 97% | 0.109 nM
B7 | 9.6e-05 s⁻¹ | 108% | 0.133 nM
B8 | 1.8e-05 s⁻¹ | 100% | 0.109 nM
B9 | 3.5e-05 s⁻¹ | 112% | 0.115 nM
B10 | 0.00015 s⁻¹ | 103% | 0.153 nM
B11 | 4e-05 s⁻¹ | 108% | 0.098 nM
B12 | 2.9e-05 s⁻¹ | 96% | 0.091 nM
B13 | 0.00016 s⁻¹ | 100% | 0.131 nM
B14 | 5.7e-05 s⁻¹ | 106% | 0.107 nM
B15 | 0.00012 s⁻¹ | 105% | 0.143 nM
B16 | 6.9e-07 s⁻¹ | 115% | 0.124 nM
B17 | 4.1e-05 s⁻¹ | 109% | 0.11 nM

Binder | koff [1] | Mean E max (%) [2] | Mean EC50 [2]
B18 | 0.00018 s⁻¹ | 108% | 0.113 nM
B19 | 6.9e-05 s⁻¹ | 114% | 0.125 nM
B20 | 0.00044 s⁻¹ | 107% | 0.147 nM
B21 | 5.1e-05 s⁻¹ | 114% | 0.141 nM
B22 | 0.00028 s⁻¹ | 96% | 0.115 nM
B23 | 2.4e-05 s⁻¹ | 105% | 0.144 nM
B24 | 8.3e-05 s⁻¹ | 110% | 0.15 nM
B25 | 0.00014 s⁻¹ | 105% | 0.15 nM
B26 | 0.00014 s⁻¹ | 100% | 0.111 nM
B27 | 9.1e-05 s⁻¹ | 102% | 0.11 nM
B28 | 0.0002 s⁻¹ | 89% | 0.132 nM
B29 | 3.2e-05 s⁻¹ | 98% | 0.087 nM
B30 | 7.9e-05 s⁻¹ | 102% | 0.103 nM
B31 | 3.7e-05 s⁻¹ | 109% | 0.125 nM
B32 | 2.7e-05 s⁻¹ | 101% | 0.107 nM
B33 | 2.8e-05 s⁻¹ | 110% | 0.14 nM
